Earlier results in patent publication US20100215737A1, “COMBINATION PHARMACEUTICAL COMPOSITIONS” (priority 2007, published 2010).

Test system: MCO
Settings: 1 mg/kg iv alone, 1, 2 or 3 h after occlusion

B1: rt-PA: tissue plasminogen activator, thrombolytic (protein, UniProt P00750 36-562, looked up)
Tissue-type plasminogen …: SYQVICRDEKTQMIYQQHQSWLRPVLRSNRVEYCWCNSGRAQCHSVPVKSCSEPRCFNGGTCQQALYFSDFVCQCPEGFAGKCCEIDTRATCYEDQGISYRGTWSTAESGAECTNWNSSALAQKPYSGRRPDAIRLGLGNHNYCRNPDRDSKPWCYVFKAGKYSSEFCSTPACSEGNSDCYFGNGSAYRGTHSLTESGASCLPWNSMILIGKVYTAQNPSAQALGLGKHNYCRNPDGDAKPWCHVLKNRRLTWEYCDVPSCSTCGLRQYSQPQFRIKGGLFADIASHPWQAAIFAKHRRSPGERFLCGGILISSCWILSAAHCFQERFPPHHLTVILGRTYRVVPGEEEQKFEVEKYIVHKEFDDDTYDNDIALLQLKSDSSRCAQESSVVRTVCLPPADLQLPDWTECELSGYGKHEALSPFYSERLKEAHVRLYPSSRCTSQHLLNRTVTDNMLCAGDTRSGGPQANLHDACQGDSGGPLVCLNDGRMTLVGIISWGLGCGQKDVPGVYTKVTNYLDWIRDNMRP
- neuroprotective effect, drug alone: neuroprotective effects when administered alone up to 1 h following occlusion
